Results published in publication PMC7734321.

Legend:
Assay in all cases: MST
Conditions in all cases: N6 of strand 1 = tetrahydrofuran (F, abasic site analog), opposite G; MST: 50 mM Tris-HCl pH 7.5, 50 mM KCl, 1 mM EDTA, 1 mM DTT, 7% glycerol, 25 C, 10 min, 0.5 uM DNA; authors call Kd values estimates only
[1] = target: T1, Fpg (formamidopyrimidine-DNA glycosylase) (Escherichia coli) (UniProt P05523)
T1 sequence: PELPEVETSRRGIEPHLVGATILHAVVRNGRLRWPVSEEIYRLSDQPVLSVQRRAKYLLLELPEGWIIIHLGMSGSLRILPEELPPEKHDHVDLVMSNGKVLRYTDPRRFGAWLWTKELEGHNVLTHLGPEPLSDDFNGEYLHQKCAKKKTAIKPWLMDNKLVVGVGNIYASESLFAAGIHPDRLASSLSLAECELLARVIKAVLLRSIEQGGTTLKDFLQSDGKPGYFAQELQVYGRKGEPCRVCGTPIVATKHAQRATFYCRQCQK

[2] = target: NEIL1 (endonuclease VIII-like 1) (Homo sapiens) (UniProt Q96FI4)
NEIL1 (endonuclease VIII-like 1) (Homo sapiens), sequence (Q96FI4 2-390): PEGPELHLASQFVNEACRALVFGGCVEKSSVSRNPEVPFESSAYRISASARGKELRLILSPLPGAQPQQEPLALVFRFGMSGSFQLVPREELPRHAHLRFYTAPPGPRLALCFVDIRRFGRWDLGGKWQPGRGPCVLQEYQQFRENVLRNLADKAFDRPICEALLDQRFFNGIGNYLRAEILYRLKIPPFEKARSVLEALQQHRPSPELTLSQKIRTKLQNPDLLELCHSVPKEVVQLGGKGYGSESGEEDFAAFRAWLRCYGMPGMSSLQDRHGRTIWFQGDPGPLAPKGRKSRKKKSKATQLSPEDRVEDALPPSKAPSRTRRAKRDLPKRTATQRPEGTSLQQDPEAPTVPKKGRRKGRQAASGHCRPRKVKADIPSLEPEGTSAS

[3] = target: T2, NTH1 (endonuclease III) (Homo sapiens) (UniProt P78549)
T2 sequence: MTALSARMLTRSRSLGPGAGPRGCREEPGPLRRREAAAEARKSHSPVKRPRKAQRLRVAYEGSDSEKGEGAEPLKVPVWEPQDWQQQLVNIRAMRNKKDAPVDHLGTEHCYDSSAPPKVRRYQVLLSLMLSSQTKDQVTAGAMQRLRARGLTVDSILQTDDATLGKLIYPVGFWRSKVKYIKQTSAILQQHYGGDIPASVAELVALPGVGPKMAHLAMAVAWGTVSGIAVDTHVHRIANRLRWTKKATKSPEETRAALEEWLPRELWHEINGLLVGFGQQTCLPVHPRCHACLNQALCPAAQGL

[4] = target: T3, Nei (endonuclease VIII) (Escherichia coli) (UniProt P50465)
T3 sequence: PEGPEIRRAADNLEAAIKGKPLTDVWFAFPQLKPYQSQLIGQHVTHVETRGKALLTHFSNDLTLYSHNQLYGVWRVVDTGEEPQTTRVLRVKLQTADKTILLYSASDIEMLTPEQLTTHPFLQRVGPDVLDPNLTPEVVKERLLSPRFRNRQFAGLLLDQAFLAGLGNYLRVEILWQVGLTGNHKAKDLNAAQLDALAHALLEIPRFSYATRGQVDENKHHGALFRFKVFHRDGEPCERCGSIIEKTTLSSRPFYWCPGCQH

[5] = target: OGG1 (8-oxoguanine-DNA glycosylase) (Homo sapiens) (UniProt O15527)
OGG1 (8-oxoguanine-DNA glycosylase) (Homo sapiens), sequence (O15527 whole entry): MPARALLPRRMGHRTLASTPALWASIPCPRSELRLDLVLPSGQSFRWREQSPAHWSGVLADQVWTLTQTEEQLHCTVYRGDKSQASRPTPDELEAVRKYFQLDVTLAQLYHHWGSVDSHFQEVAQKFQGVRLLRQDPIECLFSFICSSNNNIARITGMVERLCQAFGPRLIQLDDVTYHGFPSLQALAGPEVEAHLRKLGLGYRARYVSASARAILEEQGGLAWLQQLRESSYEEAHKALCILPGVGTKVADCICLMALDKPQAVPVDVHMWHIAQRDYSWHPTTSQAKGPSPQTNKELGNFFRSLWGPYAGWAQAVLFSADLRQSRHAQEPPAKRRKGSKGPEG

“GCTCANGTACAGAGCTG / CAGCTCTGTACGTGAGC [F/G]” gave a Kd [1] of 1900 nM, a Kd [2] of 4.4 µM and a Kd [3] of 300 nM. For the same sequence, the Kd [4] was 500 nM and the Kd [5] was 2800 nM.
